Assay results reported in US5789547.

Biological target: human insulin-like growth factor-I (IGF-I) (human)

human insulin-like growth factor binding protein-3 (IGFBP-3), recombinant, from pDJ12833 (from UniProt P17936)
yield of correctly folded (native) protein by RP-HPLC after cofolding, against each protein refolded alone: 99.6%
